The target in test [1] is hERG1a(R56Q).Citrine (human) (UniProt Q12809).
The target is the same in test [2]. This is another data set of the same source.

Results on one substance are retold here after article PMC4414485.

For the substance “isolated eag domain of hERG fused to CFP (i-eag.CFP) (domain or fragment)”, in test [1], the fast deactivation time constant (tau fast) of hERG1a(R56Q) tail currents with co-expressed i-eag in HEK293 cells, whole-cell patch clamp, -120 to -20 mV (slower than hERG1a(R56Q) alone) came to 307 ms; the fast deactivation time constant (tau fast) of hERG1a(R56Q) tail currents with co-expressed i-eag in hiPSC-CMs, whole-cell patch clamp, -120 to -20 mV (slower than hERG1a(R56Q) alone) was determined as 326 ms; the slow deactivation time constant (tau slow) of hERG1a(R56Q) tail currents with co-expressed i-eag in HEK293 cells, whole-cell patch clamp, -120 to -20 mV (slower than hERG1a(R56Q) alone) stood at 1780 ms; the slow deactivation time constant (tau slow) of hERG1a(R56Q) tail currents with co-expressed i-eag in hiPSC-CMs, whole-cell patch clamp, -120 to -20 mV (slower than hERG1a(R56Q) alone) worked out at 2340 ms. This substance also yielded a V1/2 of steady-state inactivation of hERG R56Q channels with co-expressed i-eag in HEK293 cells (hERG R56Q alone -13.6 mV, WT hERG -32.2 mV) in test [2] of -24.7 mV.
